Source: PMC7192592 (Nucleic Acids Research, 2020)

Tests used:
[1] = target: the molecule itself; assay: FRET or BRET; donor- and acceptor-labeled cGAS^FL with 72-bp dsDNA, with or without Mn^2+ and/or Apcpp/Gpcpp (Supplementary Figure S2A)
[2] = target: the molecule itself; assay: SEC; size-exclusion chromatography of cGAS^FL variants (Supplementary Figure S2B)

Protein | binding result [1] | stoichiometry N [2]
TAMRA- or Cy5-labeled cGAS^FL (1:1 mixture of donor- and acceptor-labeled populations) (enzyme, human, UniProt Q8N884 2-522, looked up, TAMRA or Cy5 label (site not stated)) QPWHGKAMQRASEAGATAPKASARNARGAPMDPTESPAAPEAALPKAGKFGPARKSGSRQKKSAPDTQERPPVRATGARAKKAPQRAQDTQPSDATSAPGAEGLEPPAAREPALSRAGSCRQRGARCSTKPRPPPGPWDVPSPGLPVSAPILVRRDAAPGASKLRAVLEKLKLSRDDISTAAGMVKGVVDHLLLRLKCDSAFRGVGLLNTGSYYEHVKISAPNEFDVMFKLEVPRIQLEEYSNTRAYYFVKFKRNPKENPLSQFLEGEILSASKMLSKFRKIIKEEINDIKDTDVIMKRKRGGSPAVTLLISEKISVDITLALESKSSWPASTQEGLRIQNWLSAKVRKQLRLKPFYLVPKHAKEGNGFQEETWRLSFSHIEKEILNNHGKSKTCCENKEEKCCRKDCLKLMKYLLEQLKERFKDKKHLDKFSSYHVKTAFFHVCTQNPQDSQWDRKDLGLCFDNCVTYFLQCLRTEKLENYFIPEFNLFSSNLIDKRSKEFLTKQIEYERNNEFPVFDEF | binds | 
K173E/R176E-cGAS^FL (enzyme, human, UniProt Q8N884 2-522, looked up) QPWHGKAMQRASEAGATAPKASARNARGAPMDPTESPAAPEAALPKAGKFGPARKSGSRQKKSAPDTQERPPVRATGARAKKAPQRAQDTQPSDATSAPGAEGLEPPAAREPALSRAGSCRQRGARCSTKPRPPPGPWDVPSPGLPVSAPILVRRDAAPGASKLRAVLEKLELSEDDISTAAGMVKGVVDHLLLRLKCDSAFRGVGLLNTGSYYEHVKISAPNEFDVMFKLEVPRIQLEEYSNTRAYYFVKFKRNPKENPLSQFLEGEILSASKMLSKFRKIIKEEINDIKDTDVIMKRKRGGSPAVTLLISEKISVDITLALESKSSWPASTQEGLRIQNWLSAKVRKQLRLKPFYLVPKHAKEGNGFQEETWRLSFSHIEKEILNNHGKSKTCCENKEEKCCRKDCLKLMKYLLEQLKERFKDKKHLDKFSSYHVKTAFFHVCTQNPQDSQWDRKDLGLCFDNCVTYFLQCLRTEKLENYFIPEFNLFSSNLIDKRSKEFLTKQIEYERNNEFPVFDEF |  | 2
human full-length cGAS (cGAS^FL), wild-type (enzyme, UniProt Q8N884 2-522, looked up) QPWHGKAMQRASEAGATAPKASARNARGAPMDPTESPAAPEAALPKAGKFGPARKSGSRQKKSAPDTQERPPVRATGARAKKAPQRAQDTQPSDATSAPGAEGLEPPAAREPALSRAGSCRQRGARCSTKPRPPPGPWDVPSPGLPVSAPILVRRDAAPGASKLRAVLEKLKLSRDDISTAAGMVKGVVDHLLLRLKCDSAFRGVGLLNTGSYYEHVKISAPNEFDVMFKLEVPRIQLEEYSNTRAYYFVKFKRNPKENPLSQFLEGEILSASKMLSKFRKIIKEEINDIKDTDVIMKRKRGGSPAVTLLISEKISVDITLALESKSSWPASTQEGLRIQNWLSAKVRKQLRLKPFYLVPKHAKEGNGFQEETWRLSFSHIEKEILNNHGKSKTCCENKEEKCCRKDCLKLMKYLLEQLKERFKDKKHLDKFSSYHVKTAFFHVCTQNPQDSQWDRKDLGLCFDNCVTYFLQCLRTEKLENYFIPEFNLFSSNLIDKRSKEFLTKQIEYERNNEFPVFDEF |  | 2
